US20020103133A1
Non-standard residues stand in square brackets, D forms with d. Dox = doxorubicin conjugated to the C-terminal Leu; hPhe = N[C@@H](CCc1ccccc1)C(=O)O

Target: MMPs of HT1080 cells
Assay: cell-based or functional assay

- Fraction of L-Dox, 0 hours, minus MMP inhibitor: 0
- Fraction of L-Dox, 0 hours, plus MMP inhibitor: 0
- Fraction of L-Dox, 3 hours, minus MMP inhibitor: 0.1
- Fraction of L-Dox, 3 hours, plus MMP inhibitor: 0.004
- Fraction of L-Dox, 5.5 hours, minus MMP inhibitor: 0.2
- Fraction of L-Dox, 5.5 hours, plus MMP inhibitor: 0.01
- Fraction of L-Dox, 8 hours, minus MMP inhibitor: 0.46
- Fraction of L-Dox, 8 hours, plus MMP inhibitor: 0.02
Binder: Ac-PLG[hPhe]K(Me2)L-Dox [acetyl-P-L-G-Hof-(N,N-dimethyl-K)-L-Dox]
